{
  "source": "paper PMC7996396",
  "about": "“Affinity and Structural Analysis of the U1A RNA Recognition Motif with Engineered Methionines to Improve Experimental Phasing”",
  "key": {"[1]": {"target": "TBP6.9 (Homo sapiens (lab-evolved)) (UniProt P09012)", "sequence (P09012 whole entry, change not shown)": "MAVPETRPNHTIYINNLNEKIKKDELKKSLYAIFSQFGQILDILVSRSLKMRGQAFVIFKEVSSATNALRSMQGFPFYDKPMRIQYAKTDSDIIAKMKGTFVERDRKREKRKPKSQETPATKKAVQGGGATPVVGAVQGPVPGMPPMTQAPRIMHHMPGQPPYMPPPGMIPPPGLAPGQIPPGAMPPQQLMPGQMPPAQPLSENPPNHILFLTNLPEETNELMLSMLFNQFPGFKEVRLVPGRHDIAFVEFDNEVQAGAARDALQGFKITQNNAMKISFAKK", "assay": "ITC", "conditions": "ITC: 50 mM Na-HEPES pH 7.5, 50 mM NaCl, 50 mM KCl, 2 mM MgCl2, 5 mM beta-mercaptoethanol, 20 C; protein in syringe, RNA in cell"}, "[2]": {"target": "TBP6.9(F34M/F37M/F77M) 7Se-Met (Homo sapiens (lab-evolved)) (UniProt P09012)", "sequence (P09012 whole entry, stated change not applied)": "as the sequence (P09012 whole entry, change not shown) above", "assay": "ITC", "conditions": "ITC: 50 mM Na-HEPES pH 7.5, 50 mM NaCl, 50 mM KCl, 2 mM MgCl2, 5 mM beta-mercaptoethanol, 20 C; protein in syringe, RNA in cell"}, "[3]": {"target": "dmU1A(F37M/F77M) 7Se-Met (Homo sapiens, UniProt P09012 1-98, Y31H;Q36R;F37M;F77M)", "sequence (P09012 1-98 Y31H/Q36R/F37M/F77M)": "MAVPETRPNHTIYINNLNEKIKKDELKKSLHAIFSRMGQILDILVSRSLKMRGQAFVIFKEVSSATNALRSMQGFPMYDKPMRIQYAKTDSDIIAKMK", "assay": "ITC; Se-Met protein; ITC: 50 mM Na-HEPES pH 7.5, 50 mM NaCl, 50 mM KCl, 2 mM MgCl2, 5 mM beta-mercaptoethanol, 20 C; protein in syringe, RNA in cell", "conditions": "protein: recombinant; tags: N-terminal 6xHis removed with TEV protease; hairpin, loop closed by C65-G76"}, "[4]": {"target": "dmU1A (U1A RRM1 Y31H/Q36R) (Homo sapiens, UniProt P09012 1-98, Y31H;Q36R)", "sequence (P09012 1-98 Y31H/Q36R)": "as the sequence (P09012 1-98 Y31H/Q36R/F37M/F77M) above, with M37F, M77F counted along it", "assay": "ITC; ITC: 50 mM Na-HEPES pH 7.5, 50 mM NaCl, 50 mM KCl, 2 mM MgCl2, 5 mM beta-mercaptoethanol, 20 C; protein in syringe, RNA in cell", "conditions": "protein: recombinant; tags: N-terminal 6xHis removed with TEV protease; hairpin, loop closed by C65-G76"}},
  "data": [
    {"molecule": "GCAGAUCUGAGCCCGAAAGGAGCUCUCUGC [GNRA-TAR 30-mer]", "values": [
      {"measurement": "Kd", "setting": "[1]", "value": 87.8, "unit": "nM"},
      {"measurement": "Kd", "setting": "[2]", "value": 69.8, "unit": "nM"}
    ]},
    {"molecule": "GGAGAUCUGAGCCUGGGAGCUCUCUCC [HIV-1 TAR 27-mer]", "values": [
      {"measurement": "Kd", "setting": "[1]", "value": 8.5, "unit": "nM"},
      {"measurement": "Kd", "setting": "[2]", "value": 13.5, "unit": "nM"}
    ]},
    {"molecule": "CGAAUCCAUUGCACUCCGGAUUCG (structured_RNA)", "note": "[hpII 24-mer (U1 snRNA hairpin II)]", "values": [
      {"measurement": "Kd", "setting": "[3]", "value": "59.7 ± 11.4", "unit": "nM"},
      {"measurement": "Kd", "setting": "[4]", "value": "152 ± 7", "unit": "nM"}
    ]}
  ]
}
